Measurements: article PMC3349339 (Journal of Molecular Biology, 2012)

Legend:
[1] = biological target: HLA-DR1 with a His→Asn substitution at position β81 (human)
[2] = biological target: β81mut (HLA-DR1 with His→Asn substitution at position β81) (Homo sapiens, UniProt P01903+P01911, A100R/D57E/F55L/F60I/F76Y/H110N/I96L/L162R/M171V/P40L/Q125E/R42F/V115G/Y59C); assay: Fluorescence polarization dissociation measurements, β81mut; format: binding; conditions: FP peptide release, 37 °C, pH 5
[3] = system: wtDR1; assay: Fluorescence polarization dissociation measurements, wtDR1; format: binding, human; conditions: FP peptide release, 37 °C, pH 5
[4] = biological target: HLA-DR1 with a His→Asn substitution at position β81 (human); assay: fluorescence polarisation

Substance: HA_(306-319) peptide
- Kd [1]: 50.6 nM

Substance: P2,3 SD: HA306-319-derived peptide substituted at P2 and P3 (GPKYSDQNTLKLAT)
- Stable binding allowing off-rate measurements, β81mut [2]: this was not possible
- Stable binding allowing off-rate measurements, wtDR1 [3]: could bind in a stable fashion

Substance: P3,10 DG: HA306-319-derived peptide substituted at P3 and P10 (GPKYVDQNTLKLGT)
- Stable binding allowing off-rate measurements, β81mut [2]: this was not possible
- Stable binding allowing off-rate measurements, wtDR1 [3]: could bind in a stable fashion

Substance: fluorescein-labelled HA_(306-319) peptide
- t1/2 [4]: 77.3 h
